Reference: IntAct's records for PubMed 21059944

B1: Tumor necrosis factor receptor superfamily member 11A (Mus musculus), O35305 (parent)
chain: MAPRARRRRQLPAPLLALCVLLVPLQVTLQVTPPCTQERHYEHLGRCCSRCEPGKYLSSKCTPTSDSVCLPCGPDEYLDTWNEEDKCLLHKVCDAGKALVAVDPGNHTAPRRCACTAGYHWNSDCECCRRNTECAPGFGAQHPLQLNKDTVCTPCLLGFFSDVFSSTDKCKPWTNCTLLGKLEAHQGTTESDVVCSSSMTLRRPPKEAQAYLPSLIVLLLFISVVVVAAIIFGVYYRKGGKALTANLWNWVNDACSSLSGNKESSGDRCAGSHSATSSQQEVCEGILLMTREEKMVPEDGAGVCGPVCAAGGPWAEVRDSRTFTLVSEVETQGDLSRKIPTEDEYTDRPSQPSTGSLLLIQQGSKSIPPFQEPLEVGENDSLSQCFTGTESTVDSEGCDFTEPPSRTDSMPVSPEKHLTKEIEGDSCLPWVVSSNSTDGYTGSGNTPGEDHEPFPGSLKCGPLPQCAYSMGFPSEAAASMAEAGVRPQDRADERGASGSGSSPSDQPPASGNVTGNSNSTFISSGQVMNFKGDIIVVYVSQTSQEGPGSAEPESEPVGRPVQEETLAHRDSFAGTAPRFPDVCATGAGLQEQGAPRQKDGTSRPVQEQGGAQTSLHTQGSGQCAE

Variants of: B1
Conditions: with Tnfsf11, O35235-1
Tnfsf11, O35235-1, sequence (O35235 whole entry): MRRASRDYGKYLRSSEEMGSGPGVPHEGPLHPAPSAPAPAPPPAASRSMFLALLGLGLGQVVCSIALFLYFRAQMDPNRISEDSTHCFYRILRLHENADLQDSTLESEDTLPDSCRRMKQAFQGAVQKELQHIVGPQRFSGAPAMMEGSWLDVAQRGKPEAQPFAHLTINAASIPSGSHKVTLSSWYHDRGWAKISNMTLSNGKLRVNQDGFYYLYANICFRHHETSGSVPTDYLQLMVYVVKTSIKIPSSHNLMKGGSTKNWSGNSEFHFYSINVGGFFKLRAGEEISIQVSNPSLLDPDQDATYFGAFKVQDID

Row | effect of a mutation on the interaction | Variant
1 | disrupting interaction | E126A
2 | disrupting interaction | K97A
3 | decreasing interaction | D85A
4 | disrupting interaction | C127A
5 | disrupting interaction | K171G
6 | disrupting interaction | G54R
